This assay concerns the target Hexahistidine-tagged ALIX protein (UniProt Q8WUM4). Kind of assay: MST.
Chain of UniProt Q8WUM4 (Q8WUM4 whole entry): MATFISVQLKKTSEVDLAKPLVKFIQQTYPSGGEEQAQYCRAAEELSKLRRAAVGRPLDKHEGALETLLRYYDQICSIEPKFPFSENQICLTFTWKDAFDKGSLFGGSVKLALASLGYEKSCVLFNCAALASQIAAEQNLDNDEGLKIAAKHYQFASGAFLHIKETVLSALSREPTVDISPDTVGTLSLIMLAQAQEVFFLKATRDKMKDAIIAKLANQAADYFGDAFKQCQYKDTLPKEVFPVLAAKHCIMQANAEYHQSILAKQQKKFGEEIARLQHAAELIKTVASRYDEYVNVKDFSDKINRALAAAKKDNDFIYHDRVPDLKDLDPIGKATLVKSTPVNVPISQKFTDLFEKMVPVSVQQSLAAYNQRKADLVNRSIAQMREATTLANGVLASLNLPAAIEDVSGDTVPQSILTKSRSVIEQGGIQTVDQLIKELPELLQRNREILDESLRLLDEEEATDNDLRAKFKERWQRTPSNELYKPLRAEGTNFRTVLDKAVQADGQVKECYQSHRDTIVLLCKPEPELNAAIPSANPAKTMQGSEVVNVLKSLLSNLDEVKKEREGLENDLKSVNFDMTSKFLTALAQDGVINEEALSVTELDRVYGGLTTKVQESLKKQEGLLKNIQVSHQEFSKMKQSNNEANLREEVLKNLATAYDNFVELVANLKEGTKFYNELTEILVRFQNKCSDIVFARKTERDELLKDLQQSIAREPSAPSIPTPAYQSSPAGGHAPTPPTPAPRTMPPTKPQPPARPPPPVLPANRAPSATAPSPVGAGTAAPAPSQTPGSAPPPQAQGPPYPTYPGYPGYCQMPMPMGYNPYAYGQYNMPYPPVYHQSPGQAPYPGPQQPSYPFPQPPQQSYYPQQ

HIV-1CWT Gag late domain motif peptide registered a Kd of 290 nM.
On to HIV-1BWT Gag late domain motif peptide, for which the Kd stood at 32 nM.

The Kd is the constant that tells how readily two partners part at equilibrium.

These data come from paper doi:10.1101/459156.
